Results: publication PMC9334538 (2022)

Target: WT SARS-CoV-2 RBD (amino acids 321 to 591 of spike) (SARS-CoV-2, UniProt P0DTC2 321-591)
Assay: SPR

B1: aRBD-5-Fc (Fc fusion)
chain: QVQLVESGGGLVQPGGTLRLSCAASGFTLDYYAIGWFRQAPGKEREGVSCISGSGGITNYTDSVKGRFTISRDNAKNTVYLQMNSLKPEDTAVYYCAPVSHTVVAGCAFEAWTDFGSWGQGTQVTVSS
koff: 0.0143 s⁻¹
